Laboratory results as given in patent US20080124811A1.

Legend:
[1] = substrate: T1, BNP single alanine substituted peptide, R13 to alanine (human); test: BIAcore SPR, AM1 captured on goat anti-human Fc, peptide at 10 nM, 1800 s dissociation
T1 sequence (peptide, cyclic hBNP 1-32): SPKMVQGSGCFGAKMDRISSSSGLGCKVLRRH

[2] = substrate: T2, BNP single alanine substituted peptide, F11 to alanine (human); test: as above
T2 sequence (peptide, cyclic hBNP 1-32): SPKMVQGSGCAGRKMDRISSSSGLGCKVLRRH

fold increase in off-rate against WT BNP [1]: > 10 fold | fold increase in off-rate against WT BNP [2]: > 10 fold
B1: 106.3 AM1 chimeric antibody (antibody, V domains shown)
VH: QIQLVQSGPELRKPGETVKISCKGSGYTFTHYGINWVKQTPRKDLKWMGWINTHTGEAYYADDFKGRFAFSLETSANTAYLQINNLNNGDMGTYFCTRSHRFGLDYWGQGTSVTVSS
VL: DNVLTQSPPSLAVSLGQRATISCKANWPVDYNGDSYLNWYQQKPGQPPKFLIYAASNLESGIPARFSGSGSGTDFNLNIHPVEEEDAATYYCQQSNEDPFTFGSGTKLEIK
modifications: Conjugated to acridinium or biotinylated in the sandwich assays (Examples 4 and 7); the sites are not defined.
